The results in this text go back to doi:10.1101/475152.

The data set addresses Mlh1-Pms1 DLDMMR (Saccharomyces cerevisiae (yeast; …, UniProt P38920;P14242 1-347+374-769;1-436+488-873, internal_change;internal_change). The data set is described as follows: filter binding.

B1: 49-mer homoduplex AO3142/AO3144 (dsDNA)
DNA 1: GGGTCAACGTGGGCAAAGATGTCCTAGCAAGTCAGAATTCGGTAGCGTG
DNA 2: CACGCTACCGAATTCTGACTTGCTAGGACATCTTTGCCCACGTTGACCC
B1: the binding result is “binds”.
